± gives the uncertainty stated by the source.
Assay: self-splicing fitness, log relative to wild type (ln ratio); higher = more splicing; Tetrahymena group I intron in knt gene, E. coli kanamycin selection, DiMSum; sequences stand for … in CUCUCU…GGAGGGAAAAGUUAUCAGGCAUGCACCUGGUAGCUAGUCUUUAAACCAAUAGAUUGCAUCGGUUUAAAAGGCAAGACCGUCAAAUUGCGGGAAAGGGGUCAACAGCCGUUCAGUACCAAGUCUCAGGGGAAACUUUGAGAUGGCCUUGCAAAGGGUAUGGUAAUAAGCUGACGGACAUGGUCCUAACCACGCAGCCAAGUCCUAAGUCAACAGAUCUUCUGUUGAUAUGGAUGCAGUUCACAGACUAAAUGUCGGUCGGGGAAGAUGUAUUCUUCUCAUAAGAUAUAGUCGGACCUCUCCUUAAUGGGAGCUAGCGGAUGAAGUGAUGCAACACUGGAGCCGCUGGGAACUAAUUUGUAUGCGAAAGUAUAUUGAUUAGUUUUGGAGUACUCGUGGUCG
Method in brief: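 A randomised library covering all eight P1ex-region intron nucleotides was built with the intron in the knt kanamycin-resistance gene on pET-22b(+) and held in E. coli BL21(DE3). Cells were grown overnight at 37°C or 30°C on LB agar, with or without 25 μg/mL kanamycin, plus 100 μg/mL carbenicillin, 50 μM IPTG and 0.2% rhamnose, and pooled colonies were amplicon-sequenced on an Illumina HiSeq 2500. DiMSum fitness is the error-weighted combination of wild-type-normalised replicate fold changes, kanamycin versus none.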

Sequence | self-splicing fitness (ln) (30 °C) | self-splicing fitness (ln) (37 °C)
UUACAGCAAUAUUACGGAUA | -2.25 ± 0.21 | -0.725 ± 0.12
GAUCAGCAAUAUUACGGACA | -0.118 ± 0.089 | 0.127 ± 0.11
AACUAGCAAUAUUACGGGCC | -1.81 ± 0.12 | -1.36 ± 0.14
CGAUAGCAAUAUUACGUUAU | -3.93 ± 0.33 | -1.61 ± 0.18
CCCCAGCAAUAUUACGUGCC | -4.13 ± 0.27 | -2.57 ± 0.24
GGUGAGCAAUAUUACGAUGU | -2.19 ± 0.15 | -1.69 ± 0.23
GGGAAGCAAUAUUACGCAAG | -2.81 ± 0.16 | -1.14 ± 0.14
UACCAGCAAUAUUACGUUGG | -3.21 ± 0.12 | -2.85 ± 0.14
CUUAAGCAAUAUUACGGGCU | -3.84 ± 0.23 | -2.98 ± 0.25
UCACAGCAAUAUUACGGGUC | -3.67 ± 0.16 | -2.79 ± 0.14
CAAAAGCAAUAUUACGCACC | -2.48 ± 0.31 | -0.0893 ± 0.26
UGGGAGCAAUAUUACGGGCA | -2.36 ± 0.16 | -0.757 ± 0.16
GAUUAGCAAUAUUACGGCAC | -0.128 ± 0.13 | -0.42 ± 0.12
ACUAAGCAAUAUUACGGUGG | -3.1 ± 0.11 | -2.84 ± 0.16
CCCUAGCAAUAUUACGAACC | – | -2.28 ± 0.39
AAAUAGCAAUAUUACGUAAA | -1.61 ± 0.096 | -0.713 ± 0.11
AUAGAGCAAUAUUACGAGCA | -2.57 ± 0.19 | -0.949 ± 0.2
ACUGAGCAAUAUUACGGCCU | -2.58 ± 0.23 | -2.12 ± 0.25
GCUAAGCAAUAUUACGGAAA | -1.48 ± 0.2 | -2.28 ± 0.24
AUCGAGCAAUAUUACGCGCU | -2.97 ± 0.26 | -2.87 ± 0.36
ACUCAGCAAUAUUACGGGUG | -1.42 ± 0.063 | -0.563 ± 0.077
GCGGAGCAAUAUUACGAUUU | -2.22 ± 0.14 | -0.641 ± 0.14
CCUAAGCAAUAUUACGGAAA | – | -2.27 ± 0.27
UAGAAGCAAUAUUACGAAGA | -1.77 ± 0.18 | -0.969 ± 0.17
UCGCAGCAAUAUUACGUUGG | -2.56 ± 0.11 | -2.12 ± 0.12

Sequence | self-splicing fitness (ln) (30 °C) | self-splicing fitness (ln) (37 °C)
GGUCAGCAAUAUUACGGUCA | -0.669 ± 0.13 | 0.518 ± 0.13
UCGAAGCAAUAUUACGAUGA | -0.316 ± 0.068 | 0.368 ± 0.074
AUAAAGCAAUAUUACGGUCG | 0.114 ± 0.059 | -0.114 ± 0.083
AUCGAGCAAUAUUACGUAAA | -3.43 ± 0.3 | -1.53 ± 0.29
GGAAAGCAAUAUUACGUCGC | -0.897 ± 0.17 | -0.926 ± 0.2
GACCAGCAAUAUUACGGACU | -1.55 ± 0.082 | -0.595 ± 0.1
UUGGAGCAAUAUUACGUCUU | – | -2.09 ± 0.5
CCGGAGCAAUAUUACGUUGU | -2.59 ± 0.21 | -2.56 ± 0.26
UGAUAGCAAUAUUACGUGAG | -0.705 ± 0.05 | -0.543 ± 0.087
AGAGAGCAAUAUUACGACGU | -1.84 ± 0.15 | -0.382 ± 0.15
AAUAAGCAAUAUUACGGCCA | -0.21 ± 0.12 | -0.615 ± 0.12
UACCAGCAAUAUUACGCUAA | -1.14 ± 0.081 | -0.492 ± 0.092
GUCAAGCAAUAUUACGUGCC | -4.07 ± 0.2 | -2.73 ± 0.19
UGUUAGCAAUAUUACGGCGU | -0.742 ± 0.1 | -0.892 ± 0.14
GUACAGCAAUAUUACGAGUC | -1.88 ± 0.085 | -1.53 ± 0.096
AGCGAGCAAUAUUACGUGUC | -3.1 ± 0.24 | -2.85 ± 0.22
UUUUAGCAAUAUUACGUGCU | -2.43 ± 0.47 | -0.459 ± 0.22
UCCAAGCAAUAUUACGAAGU | -1.09 ± 0.14 | -1.57 ± 0.15
CCAUAGCAAUAUUACGCGUA | -3.19 ± 0.4 | -2.75 ± 0.41
GACGAGCAAUAUUACGCGUU | -3.74 ± 0.23 | -2.88 ± 0.25
GUCUAGCAAUAUUACGAGCU | -2.17 ± 0.33 | -0.962 ± 0.23
AUACAGCAAUAUUACGGUCU | 0.331 ± 0.06 | -0.16 ± 0.064
AGUAAGCAAUAUUACGUUCA | -1.29 ± 0.095 | -0.266 ± 0.12
GUAAAGCAAUAUUACGUGAU | -2.02 ± 0.085 | -1.52 ± 0.12
UGGGAGCAAUAUUACGUGUC | -2.08 ± 0.19 | -2.59 ± 0.33

Sequence | self-splicing fitness (ln) (30 °C) | self-splicing fitness (ln) (37 °C)
GGGAAGCAAUAUUACGUCAU | -1.42 ± 0.11 | -0.7 ± 0.13
UACCAGCAAUAUUACGGAAA | -0.915 ± 0.073 | -0.747 ± 0.077
ACGGAGCAAUAUUACGUCGU | -2.98 ± 0.26 | -2.48 ± 0.19
UGUAAGCAAUAUUACGUUCC | -4.53 ± 0.33 | -0.21 ± 0.19
UAGAAGCAAUAUUACGAGUU | – | -2.07 ± 0.33
GUACAGCAAUAUUACGAAAC | -1.74 ± 0.1 | -0.531 ± 0.12
GCGUAGCAAUAUUACGGGGG | -3.87 ± 0.21 | -1.78 ± 0.17
CUGCAGCAAUAUUACGUAUA | -2.64 ± 0.17 | -2.16 ± 0.18
CGAAAGCAAUAUUACGCCGU | -2.98 ± 0.16 | -0.862 ± 0.12
GGUUAGCAAUAUUACGACAG | -1.69 ± 0.2 | -0.85 ± 0.23
UGGGAGCAAUAUUACGUAAC | -1.63 ± 0.41 | –
AGUAAGCAAUAUUACGUGUG | -4.26 ± 0.18 | -2.32 ± 0.12
GUAGAGCAAUAUUACGAGAA | -3.8 ± 0.34 | -1.72 ± 0.47
CCAUAGCAAUAUUACGGCUC | -2.85 ± 0.36 | -2.59 ± 0.45
UCGCAGCAAUAUUACGUUAA | -2.18 ± 0.12 | -1 ± 0.096
UGUUAGCAAUAUUACGAACA | -1.08 ± 0.2 | -1.15 ± 0.32
GACCAGCAAUAUUACGUGGG | -3.64 ± 0.12 | -2.47 ± 0.12
AGAUAGCAAUAUUACGACAG | -2.26 ± 0.15 | -0.465 ± 0.18
GACCAGCAAUAUUACGUAAA | 0.0993 ± 0.067 | -0.108 ± 0.094
GUCCAGCAAUAUUACGGAGC | -2.17 ± 0.087 | -2.68 ± 0.088
ACUAAGCAAUAUUACGUCUC | -2.79 ± 0.16 | -0.208 ± 0.14
ACAGAGCAAUAUUACGACUC | -2.94 ± 0.33 | -2.47 ± 0.24
AGCAAGCAAUAUUACGGUCG | -0.327 ± 0.1 | 0.74 ± 0.13
GUUAAGCAAUAUUACGGUGA | -1.86 ± 0.15 | -1.09 ± 0.12
CGCCAGCAAUAUUACGAUAC | -3.42 ± 0.22 | -3.13 ± 0.24

Sequence | self-splicing fitness (ln) (30 °C) | self-splicing fitness (ln) (37 °C)
UGCAAGCAAUAUUACGUCAA | -2.14 ± 0.098 | -0.795 ± 0.073
CUCAAGCAAUAUUACGAGCA | – | -2.49 ± 0.33
UUUAAGCAAUAUUACGAUAU | -2.91 ± 0.14 | -1.52 ± 0.14
GGGGAGCAAUAUUACGGCUA | -0.686 ± 0.18 | -0.291 ± 0.17
UCUGAGCAAUAUUACGGACU | -2.57 ± 0.39 | -1.21 ± 0.41
CACUAGCAAUAUUACGUUGC | -2.61 ± 0.22 | -1.58 ± 0.21
ACCAAGCAAUAUUACGUUGU | -2.74 ± 0.094 | -0.985 ± 0.085
AGUCAGCAAUAUUACGGAGA | – | -1.53 ± 0.38
GCGAAGCAAUAUUACGCACA | -1.08 ± 0.13 | -0.906 ± 0.14
CUGCAGCAAUAUUACGCUGU | -1.87 ± 0.12 | -2.8 ± 0.3
CCGUAGCAAUAUUACGGUUA | -3.29 ± 0.16 | -1.57 ± 0.12
CUCCAGCAAUAUUACGGCCA | -2.94 ± 0.25 | –
CGCCAGCAAUAUUACGGUCC | -0.387 ± 0.13 | -0.161 ± 0.16
GCAAAGCAAUAUUACGGCCA | -2.11 ± 0.24 | -0.962 ± 0.19
AAGCAGCAAUAUUACGUCGU | -2.51 ± 0.095 | -0.636 ± 0.12
CCACAGCAAUAUUACGAGGA | -3.8 ± 0.18 | -1.32 ± 0.12
AACGAGCAAUAUUACGACAU | -2.2 ± 0.015 | -1.33 ± 0.033
AUAUAGCAAUAUUACGCCCG | -1.67 ± 0.21 | -1.56 ± 0.42
GGCCAGCAAUAUUACGACAA | -2.78 ± 0.24 | -1.71 ± 0.19
CGCGAGCAAUAUUACGACAA | -2.72 ± 0.34 | -2.28 ± 0.33
UGCCAGCAAUAUUACGGCAG | -2.25 ± 0.093 | -1.15 ± 0.1
UAAUAGCAAUAUUACGGAAU | -2.77 ± 0.2 | -1.76 ± 0.2

Source: the supplement of paper PMC7877785
